Consider two molecules from publication PMC2787876 (Journal of molecular biology, 2009).

The test has as its target light activated unphosphorylated rhodopsin (UniProt P02699 1-348, retinal chromophore, light-activated). Nature of the test: dissociation of the complex after dilution.

Chain of light activated unphosphorylated rhodopsin (P02699 whole entry): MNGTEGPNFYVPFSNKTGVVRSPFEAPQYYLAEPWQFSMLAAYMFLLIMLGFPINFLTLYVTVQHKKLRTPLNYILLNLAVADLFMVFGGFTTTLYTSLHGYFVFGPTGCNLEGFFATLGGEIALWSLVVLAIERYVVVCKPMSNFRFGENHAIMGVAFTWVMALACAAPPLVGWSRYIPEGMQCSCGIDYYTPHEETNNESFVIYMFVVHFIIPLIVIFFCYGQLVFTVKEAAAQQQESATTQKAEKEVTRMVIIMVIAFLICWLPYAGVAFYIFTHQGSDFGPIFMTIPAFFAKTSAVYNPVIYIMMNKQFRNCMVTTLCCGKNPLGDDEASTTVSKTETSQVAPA

B1: arrestin1 2A-3A-h3A (natural protein, bovine, UniProt P08168 1-404, looked up)
chain: MKANKPAPNHVIFKKISRDKSVTIYLGKRDYIDHVERVEPVDGAVAVDPELVKGKRVYVSLTCAFRYGQEDIDVMGLSFRRDLYFSQVQVFPPVGASGATTRAQESAIKKAGANTYPFLLTFPDYLPCSVMLQPAPQDVGKSCGVDFEIKAFATHSTDVEEDKIPKKSSVRLLIRKVQHAPRDMGPQPRAEASWQFFMSDKPLRLAVSLSKEIYYHGEPIPVTVAVTNSTEKTVKKIKVLVEQVTNVVLYSSDYYIKTVAAEEAQEKVPPNSSLTKTLTLVPLLANNRERRGIALDGKIKHEDTNLASSTIIKEGIDKTVMGILVSYQIKVKLTVSGLLGELTSSEVATEVPFRLMHPQPEDPDTAKESFQDENAAAEEFARQNLKDAGEYKEEKTDQEAAMDE
modifications: [3H]leucine and [14C]leucine incorporated
B1: the “half-life of the complex (t1/2)” value turned out to be 72 ± 7 min.

B2: arrestin1 h3A on the background of the 3A mutation (natural protein, bovine, UniProt P08168 1-404, looked up)
chain: MKANKPAPNHVIFKKISRDKSVTIYLGKRDYIDHVERVEPVDGVVLVDPELVKGKRVYVSLTCAFRYGQEDIDVMGLSFRRDLYFSQVQVFPPVGASGATTRAQESAIKKAGANTYPFLLTFPDYLPCSVMLQPAPQDVGKSCGVDFEIKAFATHSTDVEEDKIPKKSSVRLLIRKVQHAPRDMGPQPRAEASWQFFMSDKPLRLAVSLSKEIYYHGEPIPVTVAVTNSTEKTVKKIKVLVEQVTNVVLYSSDYYIKTVAAEEAQEKVPPNSSLTKTLTLVPLLANNRERRGIALDGKIKHEDTNLASSTIIKEGIDKTVMGILVSYQIKVKLTVSGLLGELTSSEVATEVPFRLMHPQPEDPDTAKESFQDENAAAEEFARQNLKDAGEYKEEKTDQEAAMDE
modifications: [3H]leucine and [14C]leucine incorporated
Regarding B2, the “half-life of the complex (t1/2)” value came to 77 ± 9 min.
